Experimental data taken from PMC11847488, “Hydroxycinnamoyl-coenzyme A: tetrahydroxyhexanedioate hydroxycinnamoyl transferase (HHHT) from Phaseolus vulgaris L.: phylogeny, expression pattern, kinetic parameters, and active site analysis” (PeerJ, 2025).

Key:
Assay in all cases: purified protein
Format in all cases: biochemical, Phaseolus vulgaris
[1] = substrate: CC(C)(COP(=O)(O)OP(=O)(O)OC[C@H]1O[C@@H](n2cnc3c(N)ncnc32)[C@H](O)[C@@H]1OP(=O)(O)O)[C@@H](O)C(=O)NCCC(=O)NCCSC(=O)/C=C/c1ccc(O)cc1; details: co-substrate saccharic acid 20 mM, 100 mM sodium phosphate, pH 7.5, 1 mM EDTA, 25 °C
[2] = substrate: O=C(O)[C@@H](O)[C@@H](O)[C@H](O)[C@@H](O)C(=O)O; details: co-substrate p-coumaroyl-CoA 100 μM, 100 mM sodium phosphate, pH 7.5, 1 mM EDTA, 25 °C
[3] = substrate: COc1cc(/C=C/C(=O)SCCNC(=O)CCNC(=O)[C@H](O)C(C)(C)COP(=O)(O)OP(=O)(O)OC[C@H]2O[C@@H](n3cnc4c(N)ncnc43)[C@H](O)[C@@H]2OP(=O)(O)O)ccc1O; details: co-substrate saccharic acid 20 mM, 100 mM sodium phosphate, pH 7.5, 1 mM EDTA, 25 °C
[4] = substrate: CC(C)(COP(=O)(O)OP(=O)(O)OC[C@H]1O[C@@H](n2cnc3c(N)ncnc32)[C@H](O)[C@@H]1OP(=O)(O)O)[C@@H](O)C(=O)NCCC(=O)NCCSC(=O)/C=C/c1ccc(O)c(O)c1; details: co-substrate saccharic acid 20 mM, 100 mM sodium phosphate, pH 7.5, 1 mM EDTA, 25 °C
[5] = substrate: O=C(O)[C@@H](O)[C@H](O)[C@H](O)[C@@H](O)C(=O)O; details: co-substrate p-coumaroyl-CoA 100 μM, 100 mM sodium phosphate, pH 7.5, 1 mM EDTA, 25 °C

B1: HHHT (PvHHHT) (Phaseolus vulgaris) (protein)
chain: MVTIVASYRVLPCEETPKGHLWLADSDQVVRSGHTPTFYVYQAKHNHDTNERLRKSLGEILVHYYPVAGRLSLAEDARIQLDCNAKGVTFIEAETTKSMADYGDFSPGVVAELVPKIDYTQPVEEIPLMLVQSTRLPGGNGFVIGLAVCHVLSDGLGSIQFINSWAKLGRGETLEPHELPYLDRTVLKHQHSSTSPSPCFDHPELKPLPLKLGSSDINAEQKKKTRAVLLKLTRQQVEKLKKEANEQPLQEGVRAYSRFEALAGHIWRSASKARELEEKQPTVVRFNADIRSRVIPPLPKNYYGNALAATVTPKCYVGEIVSKPLSYAAQKVREAIEKLTNEYIRSQLKNVLGEEQLDCIRRLFMGEGERRNVPFAGNPNLHITSWMSMPLYEADFGWGKPVNFGLAYVFAQDRAVIILSPHGDGSIVISMTFQEEHLELFKKFFYETI
notes: full length, N-terminal 6xHis tag (pET28a(+)), codon-optimized, E. coli Rosetta 2 (DE3) pLysS, IMAC purified; tag cleavage not mentioned
For B1, the Km [1] was 7.2 ± 0.5 µM, the kcat [1] was 5.9 ± 0.1 s⁻¹ and the kcat/Km [1] was 820000 ± 60000 M⁻¹ s⁻¹. The Km [2] was 5,200 ± 500 μM, the kcat [2] was 6.4 ± 0.2 s⁻¹ and the kcat/Km [2] was 1200 ± 100 M⁻¹ s⁻¹. For the same protein, the Km [3] was 9.6 ± 0.4 µM, the kcat [3] was 6 ± 0.1 s⁻¹ and the kcat/Km [3] was 630000 ± 20000 M⁻¹ s⁻¹. It also gave a Km [4] of 5.8 ± 0.4 µM, a kcat [4] of 3.4 ± 0.1 s⁻¹ and a kcat/Km [4] of 590000 ± 40000 M⁻¹ s⁻¹. For the same protein, the Km [5] was 4,400 ± 700 μM, the kcat [5] was 1.5 ± 0.1 s⁻¹ and the kcat/Km [5] was 340 ± 50 M⁻¹ s⁻¹.
